Measurements taken from publication PMC4036204, “The DDN Catalytic Motif Is Required for Metnase Functions in Non-homologous End Joining (NHEJ) Repair and Replication Restart*”.
Positions count from the first letter of the chain named.

What was measured:
Assay in all cases: fluorescence polarization; FP: 50 mM HEPES pH 7.0, 150 mM NaCl, 10 nM probe, temperature not stated; EMSA: 50 mM HEPES-KOH pH 7.8, 50 mM NaCl, 0.2 ug poly(dI:dC), 0.2 ug/ul BSA, room temperature 15 min
[1] = biological target: T1, Metnase transposase domain N610D (UniProt Q53H47 342-684, N623D); conditions: protein: recombinant; tags: His6-SUMO cleaved by Ulp1; label: 5' rhodamine; single strand
T1 sequence: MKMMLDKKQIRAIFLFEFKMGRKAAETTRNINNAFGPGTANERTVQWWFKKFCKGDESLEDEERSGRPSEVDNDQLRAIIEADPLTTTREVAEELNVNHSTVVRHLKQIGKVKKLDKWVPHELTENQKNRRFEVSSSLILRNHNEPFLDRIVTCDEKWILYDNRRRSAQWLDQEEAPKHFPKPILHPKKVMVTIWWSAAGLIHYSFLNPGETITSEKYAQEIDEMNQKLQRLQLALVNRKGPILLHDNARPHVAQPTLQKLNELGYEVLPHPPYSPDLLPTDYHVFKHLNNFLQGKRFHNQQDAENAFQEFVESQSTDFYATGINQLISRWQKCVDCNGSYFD

[2] = biological target: T2, Metnase catalytic domain WT (UniProt Q53H47 446-684); conditions: protein: recombinant, tags: N-terminal His tag removed by thrombin
T2 sequence: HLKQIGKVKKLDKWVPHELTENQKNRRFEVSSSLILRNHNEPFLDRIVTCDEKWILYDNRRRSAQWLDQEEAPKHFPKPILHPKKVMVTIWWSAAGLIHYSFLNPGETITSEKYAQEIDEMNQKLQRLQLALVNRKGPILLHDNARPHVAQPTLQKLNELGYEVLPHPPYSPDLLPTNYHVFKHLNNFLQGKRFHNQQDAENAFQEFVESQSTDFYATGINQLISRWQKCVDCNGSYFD

Mos1 transposase WT = biological target: T3, Mos1 transposase WT (UniProt Q7JQ07 1-345); conditions: protein: recombinant; tags: His6-SUMO cleaved by Ulp1; label: 5' rhodamine; single strand
T3 sequence: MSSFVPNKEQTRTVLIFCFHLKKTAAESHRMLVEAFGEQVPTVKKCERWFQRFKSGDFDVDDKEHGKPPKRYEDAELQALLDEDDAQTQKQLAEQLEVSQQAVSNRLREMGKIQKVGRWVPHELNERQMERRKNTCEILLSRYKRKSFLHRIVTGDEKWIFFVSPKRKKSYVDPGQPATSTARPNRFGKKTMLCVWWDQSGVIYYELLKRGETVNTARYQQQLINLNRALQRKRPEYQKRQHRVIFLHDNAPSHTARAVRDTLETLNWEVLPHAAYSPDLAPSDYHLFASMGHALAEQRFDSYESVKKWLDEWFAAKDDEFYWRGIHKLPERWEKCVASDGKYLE

Mos1 transposase D284N = biological target: T4, Mos1 transposase D284N (UniProt Q7JQ07 1-345, D284N); conditions: protein: recombinant; tags: His6-SUMO cleaved by Ulp1; label: 5' rhodamine; single strand
T4 sequence: T3 sequence with D284N

[3] = biological target: T5, Metnase transposase domain N610E (UniProt Q53H47 342-684, N623E); conditions: protein: recombinant; tags: His6-SUMO cleaved by Ulp1; label: 5' rhodamine; single strand
T5 sequence: T1 sequence with D282E

[4] = biological target: T6, Metnase DNA-binding domain WT (UniProt Q53H47 342-453); conditions: protein: recombinant, tags: His6-SUMO cleaved by Ulp1
T6 sequence: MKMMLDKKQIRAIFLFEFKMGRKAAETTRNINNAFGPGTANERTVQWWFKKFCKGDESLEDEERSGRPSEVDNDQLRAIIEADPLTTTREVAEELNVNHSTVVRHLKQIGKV

[5] = biological target: T7, Metnase transposase domain WT (UniProt Q53H47 342-684); conditions: protein: recombinant, tags: His6-SUMO cleaved by Ulp1
T7 sequence: T1 sequence with D282N

[6] = label: 5' rhodamine, single strand
[7] = label: 5' rhodamine on strand 1, blunt

B1: 25-nt TIR ssDNA (ssDNA)
DNA: AACCGCAATTACTTTTGCACCAACC
modifications: 5' C6-amino linker
- Kd [1]: 3300 ± 1100 nM
- Kd [2, 6]: 295 ± 47 nM
- Kd (Mos1 transposase WT): 33 ± 9 nM
- Kd (Mos1 transposase D284N): 33 ± 12 nM
- Kd [3]: 3200 ± 400 nM
- binding result [4, 6]: no binding
- Kd [5, 6]: 277 ± 26 nM

B2: 28-bp blunt TIR dsDNA (dsDNA)
DNA 1: AACCGCAATTACTTTTGCACCAACCTAA
DNA 2: TTAGGTTGGTGCAAAAGTAATTGCGGTT
modifications: 5' C6-amino linker on strand 1
- Kd [2, 7]: 4700 ± 800 nM
- Kd [4, 7]: 3.2 ± 0.9 nM
- Kd ([5]; chain copies: 2, label: 5' rhodamine on strand 1, blunt): 7.9 ± 1.9 nM

B3: 25/31-mer TIR partial duplex (dsDNA)
DNA 1: AACCGCAATTACTTTTGCACCAACC
DNA 2: TCAGTAGGTTGGTGCAAAAGTAATTGCGGTT
modifications: 5' C6-amino linker on strand 1
- Kd ([5]; chain copies: 2, label: 5' rhodamine on strand 1, 5' overhang 6 nt on strand 2): 11.9 ± 2.5 nM
